Results taken from patent US20260217813A1 (published 2026).

T1: IL-12 (Human IL12 (His Tag)), Sino Biological Cat. No. CT-050-H08H-20 (human, UniProt P29460 23-328; P29459 23-219)
T1 construct: Bought His-tagged p35/p40 heterodimer
T1 sequence (looked up) 1: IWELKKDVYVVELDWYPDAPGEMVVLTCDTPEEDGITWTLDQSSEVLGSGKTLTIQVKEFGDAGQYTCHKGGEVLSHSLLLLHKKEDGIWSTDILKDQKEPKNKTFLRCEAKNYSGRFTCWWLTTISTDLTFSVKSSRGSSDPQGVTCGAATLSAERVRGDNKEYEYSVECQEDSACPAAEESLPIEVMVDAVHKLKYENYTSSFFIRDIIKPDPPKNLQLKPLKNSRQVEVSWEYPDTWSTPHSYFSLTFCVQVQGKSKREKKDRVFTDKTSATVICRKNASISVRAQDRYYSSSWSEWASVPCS
T1 sequence (looked up) 2: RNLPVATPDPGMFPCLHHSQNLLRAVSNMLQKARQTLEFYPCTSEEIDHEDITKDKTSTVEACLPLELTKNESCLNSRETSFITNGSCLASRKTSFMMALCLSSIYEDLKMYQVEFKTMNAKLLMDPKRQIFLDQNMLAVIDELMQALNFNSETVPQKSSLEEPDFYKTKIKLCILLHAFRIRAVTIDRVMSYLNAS


Columns and labels:
[1] = target: T1, IL-12 (Human IL12 (His Tag)), Sino …; test: FACS competition, IL-12-His 20 nM on 293T-IL-12RB1&IL-23R cells, antibody 3.33 µg/mL
Description: (§1) 200 μL of 1% PBSA was added into each sample, and the mixture was centrifuged at 700×g for 5 min to discard the supernatant. According to experiment design, correspondingly diluted antibody (highest final concentration of 30 μg/mL, 3-fold dilution, 8 concentrations in total) and human IL-12 (Sino Biological, Cat. No.: CT-050-H08H-20) (final concentration of 20 nM) were mixed at a ratio of 1:1, and a blank control was set. The mixture of antibody and human IL12 was incubated on ice for 30 min and then added to the cell precipitate at 100 μL/sample. The resulting mixture was well mixed and incubated on ice for 60 min. 200 μL of 1% PBSA was added, and the mixture was centrifuged at 700×g for 5 min to discard the supernatant, and then washed twice. Alexa Fluor® 488 anti-His tag antibody (Biolegend, Cat. No.: 652509) was diluted at a ratio of 1:400 and added to each tube at 100 μL. The mixture was well mixed and incubated on ice for 40 min in the absence of light. 200 μL of 1% PBSA was added, and the mixture was centrifuged at 700×g for 5 min to discard the supernatant, and then washed twice. 1% PBSA was added at 200 μL/tube, and the cells were resuspended and transferred to a flow cytometry tube for testing.

[2] = target: T1, IL-12 (Human IL12 (His Tag)), Sino …; test: FACS competition, IL-12-His 20 nM on 293T-IL-12RB1&IL-23R cells
Description: as §1

[3] = target: T1, IL-12 (Human IL12 (His Tag)), Sino …; test: FACS competition, IL12-His (40 nM mixed 1:1) on 293T-IL-12RB1&IL-23R cells
Description: 200 μL of 1% PBSA was added into each sample, and the mixture was centrifuged at 1200 rpm for 5 min to discard the supernatant. According to experiment design, correspondingly diluted antibody (highest final concentration of 60 μg/mL, 3-fold dilution, 8 concentrations in total) and IL12-His (Sino Biological, Cat. No.: CT-050-H08H-20) (40 nM) were mixed at a ratio of 1:1, and a blank control was set. The mixture of antibody and IL12 was incubated on ice for 30 min and then added to the cell precipitate at 100 μL/sample. The resulting mixture was well mixed and incubated on ice for 60 min. 200 μL of 1% PBSA was added, and the mixture was centrifuged at 1200 rpm for 5 min to discard the supernatant, and then washed twice. THETM His tag antibody (FITC) (Genscript, Cat. No.: A01620) was diluted at a ratio of 1:500 and added to each tube at 100 μL. The mixture was well mixed and incubated on ice for 40 min in the absence of light. 200 μL of 1% PBSA was added, and the mixture was centrifuged at 1200 rpm for 5 min to discard the supernatant, and then washed twice. 1% PBSA was added at 200 μL/tube, and the cells were resuspended and transferred to a flow cytometry tube for testing.

Binder	MFI [1]	EC50 [2] [µg/mL]	EC50 [3] [µg/mL]
H5L9 (antibody, human IgG1, kappa, V domains shown, Humanized anti-human IL-12/IL-23 p40 antibody; IgG1 (P01857) / kappa (P01834) constant regions) VH: EVQLVQSGAEVKKPGESLKISCQSSGYSFTTYWIGWVRQMPGQGLEWIGIMSPVDSDIRYNPMFRGQVTMSVDKSSSTAYLQWSSLKASDTAMYYCARRRPGQGYFDFWGQGTMVTVSS VL: DIQMTQSPSSLSASVGDRVTITCKASQNVGSWLAWYQQKPGKAPKSLIYSASSRQSGVPSRFSGSGSGTDFTLTISSLQPEDFATYYCQQYDIYPFTFGQGTKLEIKR	146	–	–
H5L10 (antibody, human IgG1, kappa, V domains shown, IgG1/kappa) VH: EVQLVQSGAEVKKPGESLKISCQSSGYSFTTYWIGWVRQMPGQGLEWIGIMSPVDSDIRYNPMFRGQVTMSVDKSSSTAYLQWSSLKASDTAMYYCARRRPGQGYFDFWGQGTMVTVSS VL: EIVLTQSPATLSASPGERATISCRASQSVGSWLAWYQQKPGQAPRSLIYAASNLQSGIPARFSGSGSGTDFTLTISSLEPEDFAVYYCQQYNIYPYTFGQGTRLEIKR	40.2	0.331	–

Further lines, results first:

MFI [1]	EC50 [2] [µg/mL]	EC50 [3] [µg/mL]	Binder
42.2	0.414	–	H5L11 (antibody, human IgG1, kappa, V domains shown, IgG1/kappa) VH: EVQLVQSGAEVKKPGESLKISCQSSGYSFTTYWIGWVRQMPGQGLEWIGIMSPVDSDIRYNPMFRGQVTMSVDKSSSTAYLQWSSLKASDTAMYYCARRRPGQGYFDFWGQGTMVTVSS VL: EIVLTQSPATLSASPGERATISCRASQSVSSWLAWYQQKPGQAPRSLIYSASNLQSGIPARFSGSGSGTDFTLTISSLEPEDFAVYYCQQYNIYPYTFGQGTRLEIKR
51.9	0.532	–	H5L14 (antibody, human IgG1, kappa, V domains shown, IgG1/kappa) VH: EVQLVQSGAEVKKPGESLKISCQSSGYSFTTYWIGWVRQMPGQGLEWIGIMSPVDSDIRYNPMFRGQVTMSVDKSSSTAYLQWSSLKASDTAMYYCARRRPGQGYFDFWGQGTMVTVSS VL: EIVLTQSPATLSASPGERATISCRASQSVSSWLAWYQQKPGQAPRSLIYAASNLQSGIPARFSGSGSGTDFTLTISSLEPEDFAVYYCQQYNIYPFTFGQGTRLEIKR
31.8	0.317	–	H5L12 (antibody, human IgG1, kappa, V domains shown, IgG1/kappa) VH: EVQLVQSGAEVKKPGESLKISCQSSGYSFTTYWIGWVRQMPGQGLEWIGIMSPVDSDIRYNPMFRGQVTMSVDKSSSTAYLQWSSLKASDTAMYYCARRRPGQGYFDFWGQGTMVTVSS VL: EIVLTQSPATLSASPGERATISCRASQSVSSWLAWYQQKPGQAPRSLIYAASNRQSGIPARFSGSGSGTDFTLTISSLEPEDFAVYYCQQYNIYPYTFGQGTRLEIKR
29.7	0.377	1.58	ustekinumab (trade name Stelara) (antibody, V domains shown) VH: EVQLVQSGAEVKKPGESLKISCKGSGYSFTTYWLGWVRQMPGKGLDWIGIMSPVDSDIRYSPSFQGQVTMSVDKSITTAYLQWNSLKASDTAMYYCARRRPGQGYFDFWGQGTLVTVSS VL: DIQMTQSPSSLSASVGDRVTITCRASQGISSWLAWYQQKPEKAPKSLIYAASSLQSGVPSRFSGSGSGTDFTLTISSLQPEDFATYYCQQYNIYPYTFGQGTKLEIK
